test: soluble on expression in E. coli; label from the status in PepcDB or PDB records

| Sequence | soluble on expression in E. coli |
| --- | --- |
| MGSDKIHHHHHHMQDTKYYEPTNIFRQPAINIKKRSDKKRILQSMMTLSTYKKTWQNNTSKMNSPILRKASDNFNDYYTTKKLKSDYWKLYGVDESELSIPSDMSIVDNILLVSTMNEKDNLKLFEISAEKKLKELQTITVPGKPITCICLLPMVDFPPQIFPSSQINPNHNQLILTGHQDGIVNLIATSTYKGCAKIIKRFNHNKFLKSTVSTSIPILEITPKTAPILKVSPWNKTGFVSLLNDSLFIYDLKSNLDCIKTPIFLQSYPGINSFAVNEFHDPFLLALVGSKFGPNGISLLDLRTNLYIPDILDNSISAGCGKDHLQRKNTSLDCVWISNHHVAQSLNDKIQIWDIQSCDGKPVCELYAKKGYIESLKFNENTGALYSSDDQGFVICWDLQNLQNMKYGELVHGFNSISLDSESELLLTKQVFQCGNIIVSGMSDKNICLKSNDTKANGKGCGFLFLDMANDGSLVTLDNFCELGLHQICQVQFNVDTGKIIDGNGTGKSGISDSSMLSLSNESDHSMTETSDDMFSNSGNWDCSSANTVSEGRLNDDQEDIVFTKRMYSVNDVHLSGSTIDTTVV | not soluble |
| MSLDLSASRSDGGDPLRPASPRLRSPVSDGGDPLRPASPRLRSPVSDGGDPLRPASPRLRSPLGASRPVVGLTAYLEQVRTGVWDIPAGYLPADYFEGITMAGGVAVLLPPQPVDPESVGCVLDSLHALVITGGYDLDPAAYGQEPHPATDHPRPGRDAWEFALLRGALQRGMPVLGICRGTQVLNVALGGTLHQHLPDILGHSGHRAGNGVFTRLPVHTASGTRLAELIGESADVPCYHHQAIDQVGEGLVVSAVDVDGVIEALELPGDTFVLAVQWHPEKSLDDLRLFKALVDAASGYAGRQSQAEPREGGSHHHHHH | soluble |
| MISNIFKISAALLLLTIVSEAKPCFGRCGGRPPPPCGLPPFLEDLPSDVQTKITEIWKDYKEGDKCYEEQGLTREIMESLPKDVRKSIHKRPPLPFLRGLPKDILAKFDAIFKDKSIPFSEKPEKIDALAQEVLTGDNLKKFQEFKEKKEKEMQEYKDKESKLSAAAKVANEKLEALGKQKFAILEELDENVKDELFDLWKSRPHGPPRHH | not soluble |
| MELWRQCTHWLIQCRVLPPSHRVTWEGAQVCELAQALRDGVLLCQLLNNLLPQAINLREVNLRPQMSQFLCLKNIRTFLSTCCEKFGLKRSELFEAFDLFDVQDFGKVIYTLSALSWTPIAQNKGIMPFPTEDSALNDEDIYSGLSDQIDDTAEEDEDLYDCVENEEAEGDEIYEDLMRLESVPTPPKMTEYDKRCCCLREIQQTEEKYTDTLGSIQQHFMKPLQRFLKPQDMETIFVNIEELFSVHTHFLKELKDALAGPGATTLYQVFIKYKERFLVYGRYCSQVESASKHLDQVATAREDVQMKLEECSQRANNGRFTLRDLLMVPMQRVLKYHLLLQELVKHTQDATEKENLRLALDAMRDLAQCVNEVKRDNETLRQITNFQLSIENLDQSLANYGRPKIDGELKITSVERRSKTDRYAFLLDKALLICKRRGDSYDLKASVNLHSFQVRDDSSGERDNKKWSHMFLLIEDQGAQGYELFFKTRELKKKWMEQFEMAISNIYPENATANGHDFQMFSFEETTSCKACQMLLRGTFYQGYRCYRCRAPAHKECLGRVPPCGRHGQDFAGTMKKDKLHRRAQDKKRNELGLPKMEVFQEYYGIPPPPGAFGPFLRLNPGDIVELTKAEAEHNWWEGRNTATNEVGWFPCNRVHPYVHGPPQDLSVHLWYAGPMERAGAEGILTNRSDGTYLVRQRVKDTAEFAISIKYNVEVKHIKIMTSEGLYRITEKKAFRGLLELVEFYQQNSLKDCFKSLDTTLQFPYKEPERRAISKPPAGSTKYFGTAKARYDFCARDRSELSLKEGDIIKILNKKGQQGWWRGEIYGRIGWFPSNYVEEDYSEYC | soluble |
| VGKEKAEVELLQVDADLQAEIVGKYNADLQKAVQIEEKKAREIATEAVKEHVTAEYEERYAEHEEHDRIMRDVAEILEQMEHAEVRRLITEDKVRPDGRRVDEIRP | not soluble |
| MSLTECFLSDQEIRKLNRDLRILIAANGTLTRVLNIVADDEVIVQIVKQRIHDVSPKLSEFEQLGQVGVGRVLQRYIILKGRNSEHLFVAAESLIAIDRLPAAIITRLTQTNDPLGEVMAASHIETFKEEAKVWVGDLPGWLALHGYQNSRKRAVARRYRVISGGQPIMVVTEHFLRSVFRDAPHEEPDRWQFSNAITLAREGHHHHHH | soluble |
| LVTISSTSAASLPTMPPSGYDQVRNGVPRGQVVNISYFSTATNSTRPARVYLPPGYSKDKKYSVLYLLHGIGGSENDWFEGGGRANVIADNLIAEGKIKPLIIVTPNTNAAGPGIADGYENFTKDLLNSLIPYIESNYSVYTDREHRAIAGLSMGGGQSFNIGLTNLDKFAYIGPISAAPNTYPNERLFPDGGKAAREKLKLLFIACGTNDSLIGFGQRVHEYCVANNINHVYWLIQGGGHDFNVWKPGLWNFLQMADEAGLTRDGNT | soluble |
| MSPQYDAIIVGGGHNGLTCGAYLARAGVKVLVVERQPMVGGAAVTGEIAPGYRSSLASYYQGLLQPKVILDLELQKYGFEVIPAAPTVFALEGGRTFTLWDDPEKFAAEIAKFSNVDGAAYAGYRAHMLKIAPHMKQLLWEVPVDPASGKIRDLKRLAGFVWRFRKVGPQFYDIYNLLTMSAWDYLSRWFTSDEVKLVLGFFAGGGGANSSLKTPGSAYMLARGIVRDGGTAAGPAGFMKGGMGAISEAIRRSGEAHGMEVRTACPVERILVENGRAVGVRLEGGEEIRSKIVIANATARTTFTKLLDPAELPEEFNRDIRNIRCESTVFRVNLALSALPEAPVFGQTNPQGSIVPQMTVAPNVAYMERAWHQAQGGEIAEAPFLIVKVPSMVDPTLAPEGHHIMNVFGGHAPYTLARGDWDSRREELWGRVLAVLKTQFPDIESRILHRQIMTPLDLERIFDLPNGHVHHGEISADQMFFRRPSPQFADYRSPVDRLYQASASVHPGGGVTGVPGHNAAKVILEDRRKWSLEHHHHHH | soluble |
| MMISLYSAATGMSAQQFKLDTIANNLANVDTTGYKKVRAEFQDLLYQYVKNAGTPTAATSSLPTGLYVGHGVRTAATTRIFTLGNFEQTGNALDLAIAGDGFFQIQLQDGRIAYTRDGSFKMDSEGRIVTSNGLLLVPEITIPENAVSINVSPDGIVSAELQDGTIQELGTITLVRFVNPSGLKSIGDNLYIATPASGDPIEGVPGQDGFGAIKQGFLEKSNVDVVREMVDMITAQRAYEFNSRVIQTADEMLRTATNVKR | soluble |
| MIRISDAAQAHFAKLLANQEEGTQIRVFVINPGTPNAECGVSYCPPDAVEATDTALKFDLLTAYVDELSAPYLEDAEIDFVTDQLGSQLTLKAPNAKMRKVADDAPLMERVEYMLQSQINPQLAGHGGRVSLMEITEDGYAILQFGGGCNGCSMVDVTLKEGIEKQLLNEFPELKGVRDLTEHQRGEHSYY | soluble |
| MAVSTVTGAAGIGLATLAADGSVLDTWFPAPELTESGTSATSRLAVSDVPVELAALIGRDDDRRTETIAVRTVIGSLDDVAADPYDAYLRLHLLSHRLVAPHGLNAGGLFGVLTNVVWTNHGPCAIDGFEAVRARLRRRGPVTVYGVDKFPRMVDYVVPTGVRIADADRVRLGAHLAPGTTVMHEGFVNYNAGTLGASMVEGRISAGVVVGDGSDVGGGASIMGTLSGGGTHVISIGKRCLLGANSGLGISLGDDCVVEAGLYVTAGTRVTMPDSNSVKARELSGSSNLLFRRNSVSGAVEVLARDGQGIALNEDLHANGVPRGLEHHHHHH | soluble |
| MMKFKKCLLPVAMLASFTLAGCQSNADDHAADVYQTDQLNTKQETKTVNIISILPAKVAVDNSQNKRNAQAFGALIGAVAGGVIGHNVGSGSNSGTTAGAVGGGAVGAAAGSMVNDKTLVEGVSLTYKEGTKVYTSTQVGKECQFTTGLAVVITTTYNETRIQPNTKCPEKS | not soluble |
| NQHLTILRNVSDRKRMEKELRESELKFRKVFNGSMDGNVLFDNQYRIIDANPLASHILGLSHEEIKQHSLLDIISAYEIENLASPARQINFDEMDNEIPFLLSSGDNRKLEFSFKRNIIQ | not soluble |
| MALRLAVSSALRPALNSQVRNASSAVSVKDVLASAPQAEVTTLKNGFRVVTEDNGSATATVGVWIETGSRFENEKNNGVAHFLERLIHKGTGKRASAALESELNAIGAKLNSFTERDQTAVFVQAGAQDVEKVVDILADVLRNSKLEASTIDTERVNLLKELEASDDYHQLVLFDMLHAAGFQGTPLALSVLGTSESIPNISAQQLKEWQEDHYRPVRMVLSAVGGGVSNVSSLADKYFGDLSNEYPRKVPQVDGTRFTGSEYRYRNDNVPHMYAAFAVEGVGYAHKDALALQIANQFIGQWDVTHATSRTAASRLVQKIGHDHGVHNLQHFNINYKDTGLFGIYFVADAHDLNDTSGIMKSVAHEWKHLASAATEEEVAMAKNQFRTNLYQNLETNTQKAGFNAKELLYTGNLRQLSELEAQIQKVDAGAVREAISRHVYDRDLAAVGVGRTEAFPNYALTRAGMSWWRM | not soluble |
| MEENKQRVKSMINILQLVAPGTPLREGIDNVLRAQTGGLIVLGYNEQIKSIVDGGFHINCAFSPASLYELAKMDGALILNETGSKILIANAQLVPDSSIDSIETGMRHRTAERVAKQTGSLVVAISQRRNVITLYQGNLRYTLKDIGVILTKANQAIQTLEKYKAVWNDGITNLGILEFEEVVTMSEVVHVLHSVEMVLRIKNEILSYIHELGTEGRLIRLQLTELLADLEAEAALLIKDYHQEKTQDHHQILKKLQDLANTQLLEDSDLVKLLGYPGQTSLEESVTPRGYRITSKISRVPPLIIENLINRFKTLQGVCRATINELDDVEGIGEVRAKKIREGLKRIQEHLYMSRHN | not soluble |
| MSDALVWQVIRNNSAFLRTQRGIGKRFSTEKFNLKKVNSPKYSGLANKHAIDVSAAAKGVVVSTKNEKGRPAKAVTTSTLSKTPVASVRRLAKNAGFNKFNKLAQRRAAAIVRSQVKKAKVQKTDA | not soluble |
| MSLSKPLKAIIIGAGISGMVASVRLREMGIEHTIFEKNNEFGGTWWENRYPGCGVDTPNLTYTFSFRPNDWSAFFPLRDEIENYLLETARESGLYDRVRFGTKVERAEWLADRNQWQVTVRAEDGSEEVHHADIVMSAVGILNMPVVPDIKGLSGFAGRVVHTSDWPQDIDLKGKRVAVVGNGASAMQVVPAIADQVAELTIFARSKQWAAPFPQFRKPVPNGVRYLMQVVPLYRAWVEQRLSWTFNDRVHGTLFRDPDWKEPARAVNAINDGHREFFTRYVREELGERQDLLPLVLPDYPPFAKRMLLDNGWYRTLRKPHVKLVPQRLAEVRGHTLVAQDGQEIEADVLILATGFQAANVLGSYDVIGRDGRDLHEFWEGDNAAAYLGTLVPGFPNFFILLGPNVGSGHGGSMIRNIENQAHYATRVIEALVKSGADAVEVREDVYGDYKARIDAAHEKLVWTHPGATNWYRNSRGRVVAITPWRNDAFWRMTREARPEDLSFSGAEGHHHHHH | soluble |
| MPEVHATALIPMLTGTNVPESEEEIDAPIYDQREVEKIRGIAHNIAENAKNPEKLMPDFMAANPGIMSTMESLKLSDFGKTSTVVPSISTSPGPIFTLANGIPAVGTPGTQSSTTVKA | soluble |
| MNLMTTITGVVLAGGKARRMGGVDKGLLELNGKPLWQHVADALMTQLSHVVVNANRHQEIYQASGLKVIEDSLADYPGPLAGMLSVMQQEAGEWFLFCPCDTPYIPPDLAARLNHQRKDAPVVWVHDGERDHPTIALVNRAIEPLLLEYLQAGERRVMVFMRLAGGHAVDFSDHKDAFVNVNTPEELARWQEKRSHHHHHH | soluble |

Reference: the DeepSol protein solubility set
